In US20240034786A1 (WUXI BIOLOGICS IRELAND, published 2024):

Key:
[1] = biological target: T1, Human P-cadherin on cells (human, UniProt P22223 108-829); assay: FACS on DU-145 cells
T1 construct: whole, on cells; Endogenous P-cadherin on tumour cell lines; also called hPro1
Protocol: (§1) Binding of the test antibodies to P-cadherin expressed on cells was determined by flow cytometry analysis. […] 1×10⁵ cells/well (100 μL) were added to each well of a 96-well U-plate (Corning, #3799) and centrifuged at 1500 rpm (Eppendorf, #5810R) for 5 minutes before removing the supernatant. Antibodies serially diluted in 1% BSA/1×PBS (Ca+/Mg+) were added at 100 μL/well to the pelleted cells and incubated at 4° C. for 1 hour. Anon-related hIgG1 antibody was used as an isotype control. Cells were washed two times with 180 μL/well of 1% BSA/1×PBS (Ca+/Mg+) by centrifugation at 1500 rpm for 5 minutes at 4° C. Pelleted cells were resuspended in 100 μL/well Alexa647 conjugated Goat anti-human IgG Fc (Jackson, #109-605-098) 1:500 diluted in 1% BSA/1×PBS (Ca+/Mg+) for 30 minutes at 4° C. in the dark. Cells were then washed two times as described above. After the final wash, cells were resuspended in 100 μL 1% BSA/1×PBS (Ca+/Mg+) and fluorescence values were measured with a FACS Canto II cytometer (BD Biosciences). The amount of cell surface bound anti-P-cadherin antibody was assessed by measuring the mean fluorescence (MFI). The FACS raw data were analyzed by FlowJo software, wells containing no antibody or secondary antibody only were used to establish background fluorescence. Binding EC50 values were obtained by the four-parameter non-linear regression analysis using GraphPad Prism6 software.

[2] = biological target: T1, Human P-cadherin on cells; assay: cell-based or functional assay
[3] = biological target: T1, Human P-cadherin on cells; assay: FACS on HCT-116 cells, antibody kept in human serum at 37 C, Day 0
Protocol: The antibody stability in human serum was tested by FACS. Briefly, human serum was freshly isolated by centrifuging the fresh blood twice at 4000 rpm for 10 minutes. […] As a control, antibodies serum mix was frozen immediately without 37° C. incubation. For the FACS analysis, the samples from different time points were free-thawed simultaneously at 4° C. […] The cells were washed twice with 1% BSA/1×PBS (Ca+/Mg+). Alexa647 conjugated Goat anti-human IgG Fc (Jackson, #109-605-098) 1:500 diluted in 1% BSA/1×PBS (Ca+/Mg+) were added to the cells and incubated at 4° C. for 30 minutes. Cells were washed twice in the same buffer and the mean fluorescence (MFI) of stained cells was measured using a FACS Canto II cytometer (BD Biosciences) and analyzed by FlowJo. Wells containing no antibody or secondary antibody only were used to establish background fluorescence. Four-parameter non-linear regression analysis was used to obtain EC50 values for cell binding using GraphPad Prism6 software.

[4] = biological target: T1, Human P-cadherin on cells; assay: FACS on HCT-116 cells
Protocol: as §1

[5] = biological target: T1, Human P-cadherin on cells; assay: cell-based or functional assay; remark: listed apart in the source
[6] = biological target: T1, Human P-cadherin on cells; assay: FACS on HCT-116 cells; remark: listed apart in the source
Protocol: as §1
Binding of the antibodies to human P-cadherin expressed on cells was determined by flow cytometry analysis.

[7] = biological target: T2, W319-hPro1.D1234.ECD.hFc (WT) (human, UniProt P22223 108-550); assay: direct ELISA on coated antigen
T2 construct: range 108-550; also called Human P-cadherin ECD domain 1&2&3&4; domain 1-4; not shown: human Fc by the code hFc
Protocol: (§2) The binding of the antibodies to W319-hPro1.D1.ECD.hFc, W319-hPro1.D12.ECD.hFc (WT), W319-hPro1.D123.ECD.hFc (WT), W319-hPro1.D1234.ECD.hFc (WT) (2.5) and W319-hPro1.ECD.hFc (WT)-P3 were tested by a direct protein binding ELISA. 96-well high protein binding ELISA plates (Nunc MaxiSorp, ThermoFisher, Cat #: 442404) were coated overnight at 4° C. with 1 μg/mL antigens in Carbonate-bicarbonate buffer (20 mM Na2CO3, 180 mM NaHCO3, pH=9.2). All wells were washed three time with 300 μL per well of PBS/0.5‰ Tween-20 (v/v) and all the following wash steps in the assay were performed the same. The wells were then blocked for one hour with 2% BSA (Bovogen, Cat #: BSAS)/1×PBS (Ca+/Mg+) (Gibco, #14040-117) and washed three times. For the primary antibody binding, the testing antibodies including the BMKs and our antibodies serially diluted in 2% BSA/1×PBS (Ca+/Mg+) were added to the relevant wells and incubated at room temperature for two hours. Plates were washed three times prior to the addition of 100 μL of secondary antibody Goat anti-Human-IgG-F(ab′)2-HRP (Jackson, Cat #: 109-035-097) 5000-fold diluted in 2% BSA/1×PBS (Ca+/Mg+). Plates were incubated at room temperature for one hour, followed by six washes as describe above.
(§3) For the binding detection, 100 μL Tetramethylbenzidine (TMB) Substrate solution (Invitrogen, Cat #: 002023) was added to all wells for 10 minutes before stopping the reaction with 100 μL 2M HCl. The extent of the testing Abs binding to W319-hPro1.D1.ECD.hFc, W319-hPro1.D12.ECD.hFc (WT), W319-hPro1.D123.ECD.hFc (WT), W319-hPro1.D1234.ECD.hFc (WT) and W319-hPro1.ECD.hFc (WT)-P3 were determined by measuring the OD450 absorbance using the SpectraMax® M5e microplate reader. Wherever appropriate, binding EC50 values were obtained by the four-parameter non-linear regression analysis using GraphPad Prism 5 software.
(§4) Its binding epitope is different from BMKs.

[8] = biological target: T3, W319-hPro1.ECD.hFc (WT)-P3 (human, UniProt P22223 108-654); assay: direct ELISA on coated antigen
T3 construct: range 108-654; also called Human P-cadherin ECD; not shown: human Fc by the code hFc
Protocol: as §2, §3, §4

[9] = biological target: T4, W319-hPro1.D12.ECD.hFc (WT) (human, UniProt P22223 108-348); assay: direct ELISA on coated antigen
T4 construct: range 108-348; also called Human P-cadherin ECD domain 1&2; domain 1-2; not shown: human Fc by the code hFc
Protocol: as §2, §3, §4

T1 sequence (P22223 108-829): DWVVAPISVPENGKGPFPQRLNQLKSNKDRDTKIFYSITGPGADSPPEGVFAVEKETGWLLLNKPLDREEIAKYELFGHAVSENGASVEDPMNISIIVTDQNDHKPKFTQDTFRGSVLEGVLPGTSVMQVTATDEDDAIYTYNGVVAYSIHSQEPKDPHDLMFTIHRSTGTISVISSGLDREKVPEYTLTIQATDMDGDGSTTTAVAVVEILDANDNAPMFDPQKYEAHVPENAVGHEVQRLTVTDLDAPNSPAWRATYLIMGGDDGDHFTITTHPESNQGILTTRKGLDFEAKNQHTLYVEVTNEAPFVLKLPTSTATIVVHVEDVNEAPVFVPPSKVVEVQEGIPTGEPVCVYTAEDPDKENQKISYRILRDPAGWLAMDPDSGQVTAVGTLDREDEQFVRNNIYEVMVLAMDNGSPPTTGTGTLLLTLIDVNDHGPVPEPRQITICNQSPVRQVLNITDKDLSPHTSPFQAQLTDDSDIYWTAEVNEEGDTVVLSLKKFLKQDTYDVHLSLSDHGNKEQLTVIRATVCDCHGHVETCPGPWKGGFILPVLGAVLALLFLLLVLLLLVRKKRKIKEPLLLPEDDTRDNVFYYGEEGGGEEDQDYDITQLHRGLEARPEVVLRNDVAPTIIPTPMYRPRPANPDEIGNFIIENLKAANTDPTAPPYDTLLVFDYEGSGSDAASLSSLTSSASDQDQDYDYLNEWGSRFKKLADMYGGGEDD
T2 sequence (P22223 108-550): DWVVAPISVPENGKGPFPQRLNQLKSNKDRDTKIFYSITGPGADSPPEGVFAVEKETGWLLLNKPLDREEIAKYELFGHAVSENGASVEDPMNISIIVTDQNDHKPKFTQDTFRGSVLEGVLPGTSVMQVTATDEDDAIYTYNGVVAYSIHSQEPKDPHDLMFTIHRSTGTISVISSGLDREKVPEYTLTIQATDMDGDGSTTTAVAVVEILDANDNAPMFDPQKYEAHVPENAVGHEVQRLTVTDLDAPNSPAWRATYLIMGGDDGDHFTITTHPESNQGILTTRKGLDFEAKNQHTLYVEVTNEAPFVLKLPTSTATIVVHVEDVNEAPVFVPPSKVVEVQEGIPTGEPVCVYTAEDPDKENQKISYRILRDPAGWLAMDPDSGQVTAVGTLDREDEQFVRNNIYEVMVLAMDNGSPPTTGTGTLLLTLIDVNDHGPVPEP
T3 sequence (P22223 108-654): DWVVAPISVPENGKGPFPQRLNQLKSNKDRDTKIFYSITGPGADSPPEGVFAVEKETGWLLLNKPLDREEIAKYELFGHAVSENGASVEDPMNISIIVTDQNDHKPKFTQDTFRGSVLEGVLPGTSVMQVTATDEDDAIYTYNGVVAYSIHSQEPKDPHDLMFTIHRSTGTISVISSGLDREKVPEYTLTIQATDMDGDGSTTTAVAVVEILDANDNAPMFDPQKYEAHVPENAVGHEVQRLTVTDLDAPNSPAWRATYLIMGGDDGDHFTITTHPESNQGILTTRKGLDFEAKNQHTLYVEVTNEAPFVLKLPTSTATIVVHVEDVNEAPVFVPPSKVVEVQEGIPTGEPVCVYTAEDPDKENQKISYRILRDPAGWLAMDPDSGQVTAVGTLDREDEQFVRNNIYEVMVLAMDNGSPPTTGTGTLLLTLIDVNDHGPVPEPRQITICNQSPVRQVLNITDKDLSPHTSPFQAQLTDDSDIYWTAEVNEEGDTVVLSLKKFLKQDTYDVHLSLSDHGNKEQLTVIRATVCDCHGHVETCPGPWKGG
T4 sequence (P22223 108-348): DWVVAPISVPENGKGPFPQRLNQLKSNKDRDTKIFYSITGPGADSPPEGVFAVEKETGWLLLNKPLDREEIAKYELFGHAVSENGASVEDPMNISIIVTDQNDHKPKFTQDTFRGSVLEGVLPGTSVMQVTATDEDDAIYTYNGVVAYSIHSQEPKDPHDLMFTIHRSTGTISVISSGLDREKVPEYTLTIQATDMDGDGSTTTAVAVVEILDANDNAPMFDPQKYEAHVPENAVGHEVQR

- EC50 [1]: 0.1 nM
- Max MFI [1]: 2290
- ADCC reporter gene assay, EC50 [2]: 0.052 nM
- ADCC reporter gene assay, Max Fold Change [2]: 145 fold
- EC50 [3]: 0.2 nM
- EC50 [4]: 0.21 nM
- internalization, Fab-ZAP CTG assay on HCC-1954, IC50 [5]: 0.02 nM
- EC50 [6]: 0.15 nM
- Max MFI [6]: 4080
- EC50 [7]: 0.087 nM
- Max OD450 [7]: 2.88
- EC50 [8]: 0.14 nM
- Max OD450 [8]: 2.88
- Max OD450 [9]: 0.08
B1: W3195-1.53.1-p1-uIgG1L (antibody)
heavy: not shown
light: SYELTQPPSVSVSPGQTAQITCSGDKLGDKFASWYQQKSGQSPVVVIYQDNKRPSGFPERFSGSNSGNTATLTISGTQAMDEADYYCQAWDSSIVVFGGGTKLTVLGQPKAAPSVTLFPPSSEELQANKATLVCLISDFYPGAVTVAWKADSSPVKAGVETTTPSKQSNNKYAASSYLSLTPEQWKSHRSYSCQVTHEGSTVEKTVAPTECS
notes: also called W3195-p1 antibody
